# Experimental data published in PMC4896102, “Biosynthesis of the polymeric gel-forming mucin MUC5B” (American Journal of Physiology - Lung Cellular and …, 2016).
# B1: recombinant MUC5B COOH-terminus (CT5B; D4-B-C-CK) (domain or fragment, human, UniProt Q9HC84 4955-5762, looked up)
# chain: GEVIYNKTDRAGCHFYAVCNQHCDIDRFQGACPTSPPPVSSAPLSSPSPAPGCDNAIPLRQVNETWTLENCTVARCVGDNRVVLLDPKPVANVTCVNKHLPIKVSDPSQPCDFHYECECICSMWGGSHYSTFDGTSYTFRGNCTYVLMREIHARFGNLSLYLDNHYCTASATAAAARCPRALSIHYKSMDIVLTVTMVHGKEEGLILFDQIPVSSGFSKNGVLVSVLGTTTMRVDIPALGVSVTFNGQVFQARLPYSLFHNNTEGQCGTCTNNQRDDCLQRDGTTAASCKDMAKTWLVPDSRKDGCWAPTGTPPTASPAAPVSSTPTPTPCPPQPLCDLMLSQVFAECHNLVPPGPFFNACISDHCRGRLEVPCQSLEAYAELCRARGVCSDWRGATGGLCDLTCPPTKVYKPCGPIQPATCNSRNQSPQLEGMAEGCFCPEDQILFNAHMGICVQACPCVGPDGFPKFPGERWVSNCQSCVCDEGSVSVQCKPLPCDAQGQPPPCNRPGFVTVTRPRAENPCCPETVCVCNTTTCPQSLPVCPPGQESICTQEEGDCCPTFRCRPQLCSYNGTFYGVGATFPGALPCHMCTCLSGDTQDPTVQCQEDACNNTTCPQGFEYKRVAGQCCGECVQTACLTPDGQPVQLNETWVNSHVDNCTVYLCEAEGGVHLLTPQPASCPDVSSCRGSLRKTGCCYSCEEDSCQVRINTTILWHQGCETEVNITFCEGSCPGASKYSAEAQAMQHQCTCCQERRVHEETVPLHCPNGSAILHTYTHVDECGCTPFCVPAPMAPPHTRGFPAQEATAV
# modifications: N-glycans (removed by PNGase F; positions not stated)
# notes: Present as a mixture of monomers and disulfide-stabilised dimers; the proportions varied between preparations; also called MUC5B COOH-terminal construct; COOH-terminal region of MUC5B
# Biological target: the molecule itself
# Test: SEC-MALS; SEC-MALLS of purified CT5B, performed as described in ref. 18; light scattering and refractive index
protein,measurement,value
B1,stoichiometry N,2
